Test results as given in publication PMC2532785 (The EMBO Journal, 2008).

B1: WT Irga6, recombinant (enzyme, mouse, UniProt Q9QZ85 1-413, looked up)
chain: MGQLFSSPKSDENNDLPSSFTGYFKKFNTGRKIISQEILNLIELRMRKGNIQLTNSAISDALKEIDSSVLNVAVTGETGSGKSSFINTLRGIGNEEEGAAKTGVVEVTMERHPYKHPNIPNVVFWDLPGIGSTNFPPNTYLEKMKFYEYDFFIIISATRFKKNDIDIAKAISMMKKEFYFVRTKVDSDITNEADGKPQTFDKEKVLQDIRLNCVNTFRENGIAEPPIFLLSNKNVCHYDFPVLMDKLISDLPIYKRHNFMVSLPNITDSVIEKKRQFLKQRIWLEGFAADLVNIIPSLTFLLDSDLETLKKSMKFYRTVFGVDETSLQRLARDWEIEVDQVEAMIKSPAVFKPTDEETIQERLSRYIQEFCLANGYLLPKNSFLKEIFYLKYYFLDMVTEDAKTLLKEICLRN
B2: Irga6-K82A, recombinant (enzyme, mouse, UniProt Q9QZ85 1-413, looked up)
chain: MGQLFSSPKSDENNDLPSSFTGYFKKFNTGRKIISQEILNLIELRMRKGNIQLTNSAISDALKEIDSSVLNVAVTGETGSGASSFINTLRGIGNEEEGAAKTGVVEVTMERHPYKHPNIPNVVFWDLPGIGSTNFPPNTYLEKMKFYEYDFFIIISATRFKKNDIDIAKAISMMKKEFYFVRTKVDSDITNEADGKPQTFDKEKVLQDIRLNCVNTFRENGIAEPPIFLLSNKNVCHYDFPVLMDKLISDLPIYKRHNFMVSLPNITDSVIEKKRQFLKQRIWLEGFAADLVNIIPSLTFLLDSDLETLKKSMKFYRTVFGVDETSLQRLARDWEIEVDQVEAMIKSPAVFKPTDEETIQERLSRYIQEFCLANGYLLPKNSFLKEIFYLKYYFLDMVTEDAKTLLKEICLRN

Target: the molecule itself
Test: conventional and dynamic light scattering

| Protein | binding result |
| --- | --- |
| B1 | binds |
| B2 | binds |
